This series addresses T1, EpCAM (UniProt P16422 P16422:24-265).
T1 sequence: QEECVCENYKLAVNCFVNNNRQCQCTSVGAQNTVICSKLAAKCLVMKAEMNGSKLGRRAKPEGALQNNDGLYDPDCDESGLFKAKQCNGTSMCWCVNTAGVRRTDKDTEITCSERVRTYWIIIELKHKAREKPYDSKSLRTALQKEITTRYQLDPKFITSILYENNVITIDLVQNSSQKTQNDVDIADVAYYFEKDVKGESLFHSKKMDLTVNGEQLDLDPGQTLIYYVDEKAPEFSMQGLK
In words: stated identified by library screening to recognize EpCAM, no data shown.

B1: CAR003 (ssRNA)
RNA: AUCCAGAGUGACGCAGCAGUCUUUUCUGAUGGACACGUGGUGGUCUAGUAUCACUAAGCCACCGUGUCCA
As to B1, the binding result is reported as “binds”.

The values above are taken from patent US20190367903, “OLIGONUCLEOTIDE PROBES AND USES THEREOF” (CARIS SCIENCE, INC., published 2019).
